The target in the test is T1, GST-G511-V540 (TRPV6 S5 fragment) (human, UniProt Q9H1D0 511-540).
T1 construct: also called S5 (G511-V540); source: E. coli, purified (GST beads)
In words: pull-down; purified His- or GST-tagged peptides from E. coli incubated together overnight at 4 °C, 50% beads (GST or Ni-NTA) added, washed with 1% NP-40, western blot. The following applies: both partners purified.

T1 sequence (Q9H1D0 511-540): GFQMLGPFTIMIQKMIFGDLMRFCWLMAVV

B1: His-MBP-A603-L632 (TRPV6 S6 fragment) (domain or fragment)
chain: not shown
notes: also called S6 (A603-L632); source: E. coli, purified (Ni-NTA beads)
Regarding B1, the binding result is listed as “binds”.

For the origin of these results see paper PMC8376870, “Auto-inhibitory intramolecular S5/S6 interaction in the TRPV6 channel regulates breast cancer cell migration and invasion” (Communications Biology, 2021).
